From US20120027763A1 (TRANSGENE BIOTEK, published 2012) come the findings set out here.

For this assay, the target named is T1, TNFRSF17-epag.
T1 construct: also called TNFRS17-epag
T1 peptide: KSRTGDEIILPRGLC
Put plainly: screening of ascites mAbs by specific Ag binding activity, after immunization with SEQ ID NO:2.

B1: TBL-CLN1 (antibody, V domains shown)
VH: EVKLVESGGGLVKPGGSLKLSCAASGITFSTYAMSWVRQTPEKRLEWVASITTGGNVYFPDSVKGRFTISRDNARNILYLQMSSLRSEDTAMYYCAGGITATRGTFAYWGQGTTLTVSS
VL: DVLMTQTPLSLPVSLGDQASISCRSSQSIGHSNGITYLEWYLQKPGQSPKLLIYKVSNRFSGVPDRFSGSGSGTDFTLKISRVEAEDLGVYYCFEGSHVPLTFGAGTKLELKR
notes: also called TBL-CLNI
Take B1: the binding result is given as “binds”.
